Measured values as given in paper PMC13193609, “Polyphosphate modulates the stress-responsive formation of functional RNA-protein condensates in bacteria and mammalian cells”.

Molecular target: Hfq (Escherichia coli, UniProt P0A6X3 1-102)
Assay: EMSA; 25 uM Hfq with 0.5-4 uM FAM-rA30, no polyP; Condensates: 20 mM HEPES pH 7.0, 50 mM NaCl, no crowder; EMSA buffer and temperature not given in the material
Conditions: protein: recombinant; chain copies: 6; label: FAM (5' as printed FAM-(rA)30); single strand

Hfq, sequence (P0A6X3 whole entry): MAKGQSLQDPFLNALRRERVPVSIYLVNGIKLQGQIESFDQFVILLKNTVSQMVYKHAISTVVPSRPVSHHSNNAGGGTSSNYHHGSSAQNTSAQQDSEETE

Binder: AAAAAAAAAAAAAAAAAAAAAAAAAAAAAA (ssRNA) [FAM-rA30]
- binding result: binds
